Earlier results in publication PMC4676407.

Molecular target: Akt kinase domain kinase domain (Homo sapiens) (UniProt P31749)

Akt C-terminal peptide C-terminus (from UniProt P31749)
Kd: > 5 mM
